How the values were obtained:
[1] = biological target: human CD16A-158V ECD fused to monomeric Fc (human) (UniProt P08637); assay: SPR (Biacore T200), receptor captured, 1:1 model
[2] = biological target: human CD16A-158F ECD fused to monomeric Fc (human) (UniProt P08637); assay: SPR (Biacore T200), receptor captured, 1:1 model
human CD16A-158F ECD fused to monomeric Fc (human), sequence (P08637 17-208): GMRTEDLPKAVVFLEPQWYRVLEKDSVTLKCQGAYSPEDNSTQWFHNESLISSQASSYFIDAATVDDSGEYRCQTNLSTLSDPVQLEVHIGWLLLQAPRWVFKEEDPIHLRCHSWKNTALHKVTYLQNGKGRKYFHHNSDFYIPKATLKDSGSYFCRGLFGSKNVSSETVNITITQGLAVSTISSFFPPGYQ

human CD16A-158V ECD fused to monomeric Fc (human), sequence (P08637 17-208 F176V): as the sequence (P08637 17-208) above, with F160V counted along it

Kd [1] [nM]	koff [1] [s⁻¹]	kon [1] [M⁻¹ s⁻¹]	Kd [2] [nM]	koff [2] [s⁻¹]	kon [2] [M⁻¹ s⁻¹]	Substance
13.5	0.00639	474000				human IgG1 Fc (enhanced, S239D/I332E) (antibody)
			34700	0.71	20400	human IgG1 Fc (silenced, L234F/L235E/D265A) (antibody)
424	0.00995	23500	2720	0.0675	24800	human IgG1 Fc (wildtype) (antibody)
